Test results reported in patent US12723100 (CSPC MEGALITH BIOPHARMACEUTICAL, dated 2026).

T1: full-length human Nectin-4 on cells (human, UniProt Q96NY8 32-510)
T1 construct: the cell is named under assay; also called CHO-Nectin-4 cells; Nectin-4-CHO
T1 sequence: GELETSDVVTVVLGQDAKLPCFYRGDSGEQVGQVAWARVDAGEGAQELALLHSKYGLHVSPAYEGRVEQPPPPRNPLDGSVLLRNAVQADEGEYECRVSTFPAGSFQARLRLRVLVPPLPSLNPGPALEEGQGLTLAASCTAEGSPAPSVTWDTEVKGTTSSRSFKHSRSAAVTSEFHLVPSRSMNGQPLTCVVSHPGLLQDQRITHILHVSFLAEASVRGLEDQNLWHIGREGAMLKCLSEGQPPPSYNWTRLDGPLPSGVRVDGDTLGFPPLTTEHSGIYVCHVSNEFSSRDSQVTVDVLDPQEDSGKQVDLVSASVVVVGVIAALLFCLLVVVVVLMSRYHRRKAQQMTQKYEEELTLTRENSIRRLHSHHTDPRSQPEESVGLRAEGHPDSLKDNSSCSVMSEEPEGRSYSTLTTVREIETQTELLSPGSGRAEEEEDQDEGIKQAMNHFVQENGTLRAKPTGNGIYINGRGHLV

T2: rat Nectin-4 (rat, UniProt Q8R007 31-508 (mouse entry))
T2 construct: Transiently expressed on 293T cells
T2 chain: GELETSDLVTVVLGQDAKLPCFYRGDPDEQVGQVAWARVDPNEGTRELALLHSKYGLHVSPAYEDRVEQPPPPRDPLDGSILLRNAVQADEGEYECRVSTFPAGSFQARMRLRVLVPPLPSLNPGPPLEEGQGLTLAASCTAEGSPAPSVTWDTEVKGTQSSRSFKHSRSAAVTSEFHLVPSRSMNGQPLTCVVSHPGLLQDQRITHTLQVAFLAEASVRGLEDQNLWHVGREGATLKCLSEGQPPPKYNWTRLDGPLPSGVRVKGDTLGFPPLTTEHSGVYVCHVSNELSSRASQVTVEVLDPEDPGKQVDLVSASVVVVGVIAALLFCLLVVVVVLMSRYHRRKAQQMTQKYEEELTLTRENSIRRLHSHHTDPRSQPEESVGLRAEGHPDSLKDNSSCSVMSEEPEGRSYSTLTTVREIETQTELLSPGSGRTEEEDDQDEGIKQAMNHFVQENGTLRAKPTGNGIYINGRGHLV

T3: mouse Nectin-4 (mouse, UniProt Q8R007 31-508)
T3 construct: Transiently expressed on 293T cells; also called murine Nectin-4
T3 sequence: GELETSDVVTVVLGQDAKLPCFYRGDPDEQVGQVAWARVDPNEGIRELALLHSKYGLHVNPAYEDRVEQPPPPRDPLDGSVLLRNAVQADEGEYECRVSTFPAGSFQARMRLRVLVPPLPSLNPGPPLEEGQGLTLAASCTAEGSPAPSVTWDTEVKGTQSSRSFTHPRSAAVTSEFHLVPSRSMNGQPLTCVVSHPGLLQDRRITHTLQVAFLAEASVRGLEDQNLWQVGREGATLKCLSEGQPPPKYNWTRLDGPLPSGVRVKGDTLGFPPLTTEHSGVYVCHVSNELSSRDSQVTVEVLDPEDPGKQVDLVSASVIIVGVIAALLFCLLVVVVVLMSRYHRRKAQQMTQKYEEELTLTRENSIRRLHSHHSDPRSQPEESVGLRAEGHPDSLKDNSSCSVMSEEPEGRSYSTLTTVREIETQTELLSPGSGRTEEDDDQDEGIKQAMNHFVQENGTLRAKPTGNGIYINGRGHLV


Experiments:
[1] = molecular target: T1, full-length human Nectin-4 on cells; assay: flow cytometry competition on CHO-Nectin-4 cells; competitor biotinylated human Nectin-1-His; Nectin-1 as competitor
Method: The ability of disclosed Nectin4-specific antibodies to block Nectin-1 binding to Nectin-4 expressing cells (CHO cells transfected with human Nectin-4) was determined by FACS. Briefly, CHO-Nectin-4 cells were incubated with dilutions of the disclosed Nectin-4 purified recombinant antibodies. Then, biotinylated human Nectin-1 with His tag (ACROBiosystems, catalog number: PV1-H5223, lot: 733-38GS1-47, 0.75 ug/ml) was added to the plate. After 30-minute incubation, cells were washed, followed by adding Streptavidin Alexa 647 (1:1000) to the samples. After a 30 minute incubation, the samples were analyzed on a flow cytometry instrument (Intellicyte, IQue plus, Sartorius) for Nectin-1 blocking activity. The positive control antibody used in this blocking assay is a reference antibody (known to be a recombinant Nectin-4 specific antibody, made by Novarock Biotherapeutics, lot: 03042020KD).

[2] = molecular target: T1, full-length human Nectin-4 on cells; assay: flow cytometry competition on CHO-Nectin-4 cells; competitor biotinylated human TIGIT; TIGIT as competitor
Method: The ability of disclosed Nectin4-specific antibodies to block TIGIT binding to CHO-Nectin-4 cells was assessed by FACS. Briefly, CHO-Nectin-4 cells were incubated with dilutions of the disclosed purified recombinant antibodies. Then, biotinylated human TIGIT protein (SinoBiologic, catalog: 10917-H08H-B, lot: LC13AP0902) was added to the plate. After 30-minute incubation, cells were washed, followed by adding Streptavidin Alexa 647 (1:1000) to the samples. After a 30 minute incubation, the samples were analyzed on a flow cytometry instrument (Intellicyte, IQue plus, Sartorius) for TIGIT blocking activity. The positive control antibody used in this blocking assay is PC2, a Nectin-4 antibody with known blocking activity.

rat Nectin-4 [3] = molecular target: T2, rat Nectin-4; assay: flow cytometry, transfected 293T cells; + EC50 between 25 nM and 133 nM
Method: (§1) CDNAs encoding Nectin-4 protein from cynomolgus monkey (SEQ ID NO: 62), rat (SEQ ID NO: 63), or mouse (SEQ ID NO: 64) were separately cloned into a pcDNA3.1-based mammalian expression plasmid. The respective plasmids were transfected to human 293T cells in a similar way described in Example 6. The binding EC50 of disclosed human Nectin-4 antibodies to species-specific Nectin-4 transiently expressed on 293T cell surface was measured by flow cytometry.

mouse Nectin-4 [4] = molecular target: T3, mouse Nectin-4; assay: flow cytometry, transfected 293T cells; ++ EC50 between 5 nM and 25 nM
Method: as §1

rat Nectin-4 [5] = molecular target: T2, rat Nectin-4; assay: flow cytometry, transfected 293T cells; +++ EC50 less than 5 nM
Method: as §1

mouse Nectin-4 [6] = molecular target: T3, mouse Nectin-4; assay: flow cytometry, transfected 293T cells; + EC50 between 25 nM and 133 nM
Method: as §1

rat Nectin-4 [7] = molecular target: T2, rat Nectin-4; assay: flow cytometry, transfected 293T cells; ++ EC50 between 5 nM and 25 nM
Method: as §1

| Binder | EC50 (mouse Nectin-4 [4]) | EC50 (rat Nectin-4 [5]) | further results |
| --- | --- | --- | --- |
| N4_mAb 4 (antibody, human IgG1, V domains shown, Tested as chimera (human IgG1/kappa constants); not shown: human IgG1 constant region (Uniprot P01857); human Kappa light chain constant region (UniProt P01834)) VH: DVQLQESGPDLVKPSQSLSLTCTVTGYSITSAYNWHWIRQFPGNKLEWMGYIHYSGRTNYNPSLKSRISITRDTSKNQFFLQLNSLTTEDTATYYCARWITTATGWYLDVWGAGTTVTVSS VL: not shown |  |  | EC50 [1]: > 130 nM; EC50 [2]: > 130 nM; EC50 (rat Nectin-4 [3]): 25 to 133 nM |
| N4_mAb 6 (antibody, human IgG1, V domains shown, Tested as chimera (murine variable regions, human IgG1/kappa constants); not shown: human IgG1 constant region (Uniprot P01857); human Kappa light chain constant region (UniProt P01834)) VH: QVQLQQSGPELVKPGASVRISCKASGYTFTTYYIHWVKQRPGQGLEWIGWIYPGNVNTKYTENFKDKATLTADKSSSTAYMQLSSLTSEDSAVYFCARGLYYFDFWGQGTTLTVSS VL: SIVMTQTPKFLLVSAGDRVTITCKASQSVNNDVAWYQQKPGQSPKLLIYYASNRDTGVPDRFTGSGFGTDFTFTISSVQAEDLAVYFCQQDYSSPYTFGGGTKLEIK | 5 to 25 nM | < 5 nM |  |
| N4_mAb 5 (antibody, human IgG1, V domains shown, Tested as chimera (human IgG1/kappa constants); not shown: human IgG1 constant region (Uniprot P01857); human Kappa light chain constant region (UniProt P01834)) VH: EVQLQQSGPDLVKPGASVKISCKASGYSFTGHYMHWVKQSHGKSLEWIGRVNPNNGGSSYNQKFKDKAILTVDKSSTTAYMELRSLTSEDSAVYYCARDPLGGSYGFAYWGQGTLVTVSA VL: DIVLTQSPASLAVSLGQRATISCRASQSVTTSSYSYMHWYQQKPGQPPKLLIKYASNLESGVPARFSGSGSGTDFTLNIHPVEEEDTATYYCQHSWEIPYTFGGGTKLEMK |  | < 5 nM | EC50 (mouse Nectin-4 [6]): 25 to 133 nM |
| N4_mAb 3 (antibody, human IgG1, V domains shown, Tested as chimera (human IgG1/kappa constants); not shown: human IgG1 constant region (Uniprot P01857); human Kappa light chain constant region (UniProt P01834)) VH: EVQLQQSGAELVKPGASVKLSCTVSGFNIKDTYMHWVKQRPEQGLEWIGRIDPANGNTKYDPKFQGKATIIADKASNTAYLQLSSLTSEDAAVYYCAHYYGSSYFAMDCWGQGTSVTVSS VL: DIVMTQSHKFMSTSVGDRVSITCKASQDVSTAVAWYQQKPGQSPKLLIYWASTRHTGVPDRFTGSGSGTDYTLTISSVQTEDLALYYCQQHYSTPLTFGAGTKLELK |  |  | EC50 (rat Nectin-4 [3]): 25 to 133 nM |
| N4_mAb 2 (antibody, human IgG1, V domains shown, Tested as chimera (human IgG1/kappa constants); not shown: human IgG1 constant region (Uniprot P01857); human Kappa light chain constant region (UniProt P01834)) VH: QVQLKQSGPNLVQPSQSLSITCTVSGFSLTTYGAHWVRQSPGKGLEWLGVIWRGGSTDYNAAFMSRLSITKDNSKSQVFFKMNSLQADDTAIYYCAKIGYDGYAMDNWGQGTSVTVSS VL: DFQVTQSPASLSASVGETVTITCRTSENIHNYLAWYQQKQGKSPQLLVYNAKTLADGVPSRFSGSGSGTQYSLKINSLQPEDFGTYYCQHFWSSPWTFGGGTKLEIK | 5 to 25 nM |  | EC50 (rat Nectin-4 [7]): 5 to 25 nM |

The next lines start with results.

| EC50 (mouse Nectin-4 [4]) | EC50 (rat Nectin-4 [5]) | Binder | further results |
| --- | --- | --- | --- |
| 5 to 25 nM | < 5 nM | N4_mAb 7 (antibody, human IgG1, V domains shown, Tested as chimera (murine variable regions, human IgG1/kappa constants); not shown: human IgG1 constant region (Uniprot P01857); human Kappa light chain constant region (UniProt P01834)) VH: QVQLQQSGPELVKPGASVKMSCKASGYTFTTYYIHWVKQRPGQGLEWIGWIYPGNAGIKSNEKFKGKTTLTADKSSSTAYMLLSSLTSEDSAIYFCARGVYFFDYWGQGTTLTVSS VL: SIVMTQTPKFLLVSAGDRVTITCKASQSVNNDVSWFQQKPGQSPKLLIYYASNRYTGVPDRFSGSGYGTDFTFTITTVQAEDLAVYFCQQDYSSPYTFGGGTKLEIK |  |
| 5 to 25 nM | < 5 nM | N4_mAb 8 (antibody, human IgG1, V domains shown, Tested as chimera (murine variable regions, human IgG1/kappa constants); not shown: human IgG1 constant region (Uniprot P01857); human Kappa light chain constant region (UniProt P01834)) VH: QVQLQQSGPVLVKPGASVRISCKASGYTFTSYYIHWVKQRPGQGLEWIGWIYPGNVNTKYNENFRDKATLTADKSSSTSYMQLSSLTSEDSAVYFCARGIYYFDYWGQGTTLTVSS VL: IIVMTQTPKFLLVSAGDRVTITCKASQSVNNDVAWYQEKPGQSPKLLIYYASNRDTGVPDRFTGSGYGTDFTFTISTVQAEDLAVYFCHQDYSSPFTFGSGTKLEIK |  |
